# Assays:
# [1] = target: HLA-A*0201 class I monomer on avidin-coated plates (iTopia Epitope Discovery System) (human); assay: iTopia affinity assay (FIGS. 27A and 27B)
# [2] = target: HLA-A*0201 class I monomer on avidin-coated plates (iTopia Epitope Discovery System) (human); assay: iTopia off-rate assay (FIG. 26)
substance,measurement,setting,value
PRAME425-433 S425F L433Nle analog (peptide),fold reduction of ED50 against the native peptide,[1],> 4 fold
PRAME425-433 analog with Nva at PΩ (peptide),t1/2,[2],17.2 h

# — patent US20070060518A1
